This is an account of results in publication PMC9977783, “Ligand-specific changes in conformational flexibility mediate long-range allostery in the lac repressor” (Nature Communications, 2021).

Data set [1] addresses LacI (Escherichia coli) (UniProt P03023). The note with it: cited from earlier work.
Data set [2] concerns the molecule itself. Put plainly: SEC; purified LacI(1-331) after tag removal, buffer and concentration not given.
The target of data set [3] is LacI dimeric (lac repressor, tetramerization domain removed) (Escherichia coli, UniProt P03023 1-331). The data set can be described thus: BLI; no IPTG; BLI: PBS with 0.2% BSA, 0.05% Tween-20, pH 8.0, room temperature, LacI 0-40 nM, global 1:1 kinetic fit; HDX/MS: 50 mM MOPS, 200 mM NaCl, 0.5 mM TCEP, pH 7.0, equilibrated at 4 C. The note with it: protein: recombinant; 6xHis removed with TEV protease; chain copies: 2; label: 5'-biotin on forward strand; blunt.

With LacI (from UniProt P03023), in data set [1], the Kd was 80 nM.

B1: dimeric LacI (lac repressor, residues 1-331, without the tetramerization domain) (domain or fragment, E. coli, UniProt P03023 1-331, looked up)
chain: MKPVTLYDVAEYAGVSYQTVSRVVNQASHVSAKTREKVEAAMAELNYIPNRVAQQLAGKQSLLIGVATSSLALHAPSQIVAAIKSRADQLGASVVVSMVERSGVEACKAAVHNLLAQRVSGLIINYPLDDQDAIAVEAACTNVPALFLDVSDQTPINSIIFSHEDGTRLGVEHLVALGHQQIALLAGPLSSVSARLRLAGWHKYLTRNQIQPIAEREGDWSAMSGFQQTMQMLNEGIVPTAMLVANDQMALGAMRAITESGLRVGADISVVGYDDTEDSSCYIPPLTTIKQDFRLLGQTSVDRLLQLSQGQAVKGNQLLPVSLVKRKTTLA
notes: E. coli lac repressor (LacI), residues 1-331, tetramerization domain truncated; vector pET9a-6×His-LacI(1-331); His tag removed with TEV protease; also called LacI(1-331); apo-LacI; source: E. coli BL21(AI) ΔlacI-ZYA, purified (Ni-NTA, TEV cleavage, second Ni-NTA flowthrough)
Regarding B1, the binding result in data set [2] is “binds”.

B2: Olac (LacO1 natural operator, BLI) (dsDNA)
DNA 1: AGTAGTGGAATTGTGAGCGGATAACAATTGACATTGTGAGCGGATAACAAGATACTGAGCACATCAGC
DNA 2: GCTGATGTGCTCAGTATCTTGTTATCCGCTCACAATGTCAATTGTTATCCGCTCACAATTCCACTACT
For B2, the Kd in data set [3] was determined as 9.5 nM.

B3: Osyn (perfectly symmetric synthetic operator) (dsDNA)
DNA 1: AGTAGTCTAGAATTGTGAGCGCTCACAATTCTAGAGTAGT
DNA 2: ACTACTCTAGAATTGTGAGCGCTCACAATTCTAGACTACT
As for B3, the equilibrium dissociation constant (Kd) in data set [3] was determined as 1.1 nM.
